Source: article PMC4715182, “Structure of a Chaperone-Usher Pilus Reveals the Molecular Basis of Rod Uncoiling” (Cell, 2016)
“And” between values parts separate entries of the source, which are not always exact repeats. Equal values may be shown once.

Key:
PapA Gln106AzF, P04127 = target: T1, PapA Gln106AzF, P04127; assay: pilus rod formation quantified by Sypro Ruby signal after ultracentrifugation; details: chain shown with the change;; parent: est. 100; read off a plot
T1 chain: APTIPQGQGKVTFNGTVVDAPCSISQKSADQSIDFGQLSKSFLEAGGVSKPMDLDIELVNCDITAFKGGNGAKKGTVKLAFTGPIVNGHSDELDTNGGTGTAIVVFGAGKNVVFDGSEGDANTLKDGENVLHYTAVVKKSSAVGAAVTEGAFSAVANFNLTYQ

[1] = target: the molecule itself; assay: in vitro rod formation (pelleting by ultracentrifugation, negative stain EM, Sypro Ruby signal); purified PapD:PapA complexes at 50 μM, 20°C, 72 hr; four rounds of ultracentrifugation at 57,000 x g; 20 mM Tris (pH 7.5), 150 mM NaCl
[2] = target: the molecule itself; assay: SEC; purified PapDHis:PapA left to polymerize at 20°C for 16 hr at 38 μM; Superdex 200 10/300 increase; donor-strand exchange (DSE) products
PapA Val155AzF, P04127 = target: T2, PapA Val155AzF, P04127; assay: pilus rod formation quantified by Sypro Ruby signal after ultracentrifugation; details: chain shown with the change;; parent: est. 100; read off a plot
T2 chain: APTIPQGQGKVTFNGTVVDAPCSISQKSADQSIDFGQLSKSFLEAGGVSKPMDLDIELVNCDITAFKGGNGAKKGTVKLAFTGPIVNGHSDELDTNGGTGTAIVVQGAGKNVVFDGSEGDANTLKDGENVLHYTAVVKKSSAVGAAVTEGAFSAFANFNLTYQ

PapA Val143AzF, P04127 = target: T3, PapA Val143AzF, P04127; assay: as above; details: chain shown with the change;; parent: est. 100; read off a plot
T3 chain: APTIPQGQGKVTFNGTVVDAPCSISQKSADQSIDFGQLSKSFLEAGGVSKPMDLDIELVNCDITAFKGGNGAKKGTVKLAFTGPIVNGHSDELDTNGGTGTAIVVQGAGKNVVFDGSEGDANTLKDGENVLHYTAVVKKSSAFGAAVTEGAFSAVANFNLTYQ

PapA Thr76AzF, P04127 = target: T4, PapA Thr76AzF, P04127; assay: as above; details: chain shown with the change;; parent: est. 100; read off a plot
T4 chain: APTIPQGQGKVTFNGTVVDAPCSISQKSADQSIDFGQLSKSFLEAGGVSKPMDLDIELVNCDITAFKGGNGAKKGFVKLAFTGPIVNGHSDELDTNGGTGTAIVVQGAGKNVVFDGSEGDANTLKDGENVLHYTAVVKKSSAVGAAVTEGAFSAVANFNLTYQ

PapA Lys50AzF, P04127 = target: T5, PapA Lys50AzF, P04127; assay: as above; details: chain shown with the change;; parent: est. 100; read off a plot
T5 chain: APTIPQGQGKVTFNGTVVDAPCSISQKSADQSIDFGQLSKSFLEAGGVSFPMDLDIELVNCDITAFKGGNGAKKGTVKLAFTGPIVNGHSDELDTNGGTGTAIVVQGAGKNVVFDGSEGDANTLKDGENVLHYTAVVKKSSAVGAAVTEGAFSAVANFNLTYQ

PapA Val18AzF, P04127 = target: T6, PapA Val18AzF, P04127; assay: as above; details: chain shown with the change;; parent: est. 100; read off a plot
T6 chain: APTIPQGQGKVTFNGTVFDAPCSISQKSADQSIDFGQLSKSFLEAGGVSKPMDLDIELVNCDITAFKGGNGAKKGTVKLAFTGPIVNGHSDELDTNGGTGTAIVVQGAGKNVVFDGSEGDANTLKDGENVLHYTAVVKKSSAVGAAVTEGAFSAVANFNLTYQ

PapA Lys27AzF, P04127 = target: T7, PapA Lys27AzF, P04127; assay: as above; details: chain shown with the change;; parent: est. 100; read off a plot
T7 chain: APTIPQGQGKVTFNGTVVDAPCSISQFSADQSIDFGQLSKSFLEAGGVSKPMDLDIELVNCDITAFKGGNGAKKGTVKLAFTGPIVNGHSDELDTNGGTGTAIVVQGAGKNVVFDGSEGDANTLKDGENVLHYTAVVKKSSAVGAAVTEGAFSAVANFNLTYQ

[3] = target: the molecule itself; assay: SEC-MALS; sample of PapD:PapA Val18AzF; Superdex 200 10/300 increase; molecular weight of each peak

B1: PapA wild-type, P04127 Q106AzF (protein)
chain: APTIPQGQGKVTFNGTVVDAPCSISQKSADQSIDFGQLSKSFLEAGGVSKPMDLDIELVNCDITAFKGGNGAKKGTVKLAFTGPIVNGHSDELDTNGGTGTAIVVFGAGKNVVFDGSEGDANTLKDGENVLHYTAVVKKSSAVGAAVTEGAFSAVANFNLTYQ
B1 was tested. Which percent of parent (% of wild-type Sypro Ruby signal) (PapA Gln106AzF, P04127) did it give?
Its percent of parent (% of wild-type Sypro Ruby signal) is 93.

B2: PapA Lys27AzF (natural protein)
chain: APTIPQGQGKVTFNGTVVDAPCSISQFSADQSIDFGQLSKSFLEAGGVSKPMDLDIELVNCDITAFKGGNGAKKGTVKLAFTGPIVNGHSDELDTNGGTGTAIVVQGAGKNVVFDGSEGDANTLKDGENVLHYTAVVKKSSAVGAAVTEGAFSAVANFNLTYQ
modifications: p-azido-L-phenylalanine (AzF) at 27
notes: PapA of uropathogenic E. coli with AzF at residue 27 by amber suppression; The new residue is the unnatural amino acid p-azido-L-phenylalanine; written as F with the modification
Does B2 bind [1]?
Result: binds

B3: PapA wild-type (natural protein)
chain: APTIPQGQGKVTFNGTVVDAPCSISQKSADQSIDFGQLSKSFLEAGGVSKPMDLDIELVNCDITAFKGGNGAKKGTVKLAFTGPIVNGHSDELDTNGGTGTAIVVQGAGKNVVFDGSEGDANTLKDGENVLHYTAVVKKSSAVGAAVTEGAFSAVANFNLTYQ
notes: PapA, major P pilus rod subunit of uropathogenic E. coli; Ala1 is the very N terminus in the model; also called major pilus subunit PapA; P pilus rod subunit
Does B3 bind [2]?
Result: binds

B4: PapA Lys50AzF (natural protein)
chain: APTIPQGQGKVTFNGTVVDAPCSISQKSADQSIDFGQLSKSFLEAGGVSFPMDLDIELVNCDITAFKGGNGAKKGTVKLAFTGPIVNGHSDELDTNGGTGTAIVVQGAGKNVVFDGSEGDANTLKDGENVLHYTAVVKKSSAVGAAVTEGAFSAVANFNLTYQ
modifications: p-azido-L-phenylalanine (AzF) at 50
notes: PapA of uropathogenic E. coli with AzF at residue 50 by amber suppression; The new residue is the unnatural amino acid p-azido-L-phenylalanine; written as F with the modification
Does B4 bind [1]?
Result: binds

B5: PapA wild-type, P04127 V155AzF (protein)
chain: APTIPQGQGKVTFNGTVVDAPCSISQKSADQSIDFGQLSKSFLEAGGVSKPMDLDIELVNCDITAFKGGNGAKKGTVKLAFTGPIVNGHSDELDTNGGTGTAIVVQGAGKNVVFDGSEGDANTLKDGENVLHYTAVVKKSSAVGAAVTEGAFSAFANFNLTYQ
With B5 as the binder, how does the percent of parent (% of wild-type Sypro Ruby signal) (PapA Val155AzF, P04127) read?
The percent of parent (% of wild-type Sypro Ruby signal) was 5.

B6: PapA wild-type, P04127 V143AzF (protein)
chain: APTIPQGQGKVTFNGTVVDAPCSISQKSADQSIDFGQLSKSFLEAGGVSKPMDLDIELVNCDITAFKGGNGAKKGTVKLAFTGPIVNGHSDELDTNGGTGTAIVVQGAGKNVVFDGSEGDANTLKDGENVLHYTAVVKKSSAFGAAVTEGAFSAVANFNLTYQ
For B6, which percent of parent (% of wild-type Sypro Ruby signal) (PapA Val143AzF, P04127) is on record?
Its percent of parent (% of wild-type Sypro Ruby signal) is 94.

B7: PapA Thr76AzF (natural protein)
chain: APTIPQGQGKVTFNGTVVDAPCSISQKSADQSIDFGQLSKSFLEAGGVSKPMDLDIELVNCDITAFKGGNGAKKGFVKLAFTGPIVNGHSDELDTNGGTGTAIVVQGAGKNVVFDGSEGDANTLKDGENVLHYTAVVKKSSAVGAAVTEGAFSAVANFNLTYQ
modifications: p-azido-L-phenylalanine (AzF) at 76
notes: PapA of uropathogenic E. coli with AzF at residue 76 by amber suppression; The new residue is the unnatural amino acid p-azido-L-phenylalanine; written as F with the modification
Does B7 bind [1]?
Result: binds

B8: PapA wild-type, P04127 T76AzF (protein)
chain: APTIPQGQGKVTFNGTVVDAPCSISQKSADQSIDFGQLSKSFLEAGGVSKPMDLDIELVNCDITAFKGGNGAKKGFVKLAFTGPIVNGHSDELDTNGGTGTAIVVQGAGKNVVFDGSEGDANTLKDGENVLHYTAVVKKSSAVGAAVTEGAFSAVANFNLTYQ
Which percent of parent (% of wild-type Sypro Ruby signal) (PapA Thr76AzF, P04127) does the source give for B8 here?
The percent of parent (% of wild-type Sypro Ruby signal) was 96.

B9: PapA wild-type, P04127 K50AzF (protein)
chain: APTIPQGQGKVTFNGTVVDAPCSISQKSADQSIDFGQLSKSFLEAGGVSFPMDLDIELVNCDITAFKGGNGAKKGTVKLAFTGPIVNGHSDELDTNGGTGTAIVVQGAGKNVVFDGSEGDANTLKDGENVLHYTAVVKKSSAVGAAVTEGAFSAVANFNLTYQ
For B9, which percent of parent (% of wild-type Sypro Ruby signal) (PapA Lys50AzF, P04127) is on record?
Its percent of parent (% of wild-type Sypro Ruby signal) is 72.

B10: PapA wild-type, P04127 V18AzF (protein)
chain: APTIPQGQGKVTFNGTVFDAPCSISQKSADQSIDFGQLSKSFLEAGGVSKPMDLDIELVNCDITAFKGGNGAKKGTVKLAFTGPIVNGHSDELDTNGGTGTAIVVQGAGKNVVFDGSEGDANTLKDGENVLHYTAVVKKSSAVGAAVTEGAFSAVANFNLTYQ
Which percent of parent (% of wild-type Sypro Ruby signal) (PapA Val18AzF, P04127) does the source give for B10 here?
The percent of parent (% of wild-type Sypro Ruby signal) was 5.

B11: PapA Val143AzF (natural protein)
chain: APTIPQGQGKVTFNGTVVDAPCSISQKSADQSIDFGQLSKSFLEAGGVSKPMDLDIELVNCDITAFKGGNGAKKGTVKLAFTGPIVNGHSDELDTNGGTGTAIVVQGAGKNVVFDGSEGDANTLKDGENVLHYTAVVKKSSAFGAAVTEGAFSAVANFNLTYQ
modifications: p-azido-L-phenylalanine (AzF) at 143
notes: PapA of uropathogenic E. coli with AzF at residue 143 by amber suppression; The new residue is the unnatural amino acid p-azido-L-phenylalanine; written as F with the modification
Does B11 bind [1]?
Result: binds

B12: PapA wild-type, P04127 K27AzF (protein)
chain: APTIPQGQGKVTFNGTVVDAPCSISQFSADQSIDFGQLSKSFLEAGGVSKPMDLDIELVNCDITAFKGGNGAKKGTVKLAFTGPIVNGHSDELDTNGGTGTAIVVQGAGKNVVFDGSEGDANTLKDGENVLHYTAVVKKSSAVGAAVTEGAFSAVANFNLTYQ
Which percent of parent (% of wild-type Sypro Ruby signal) (PapA Lys27AzF, P04127) does the source give for B12 here?
The percent of parent (% of wild-type Sypro Ruby signal) was 93.

B13: PapA Gln106AzF (natural protein)
chain: APTIPQGQGKVTFNGTVVDAPCSISQKSADQSIDFGQLSKSFLEAGGVSKPMDLDIELVNCDITAFKGGNGAKKGTVKLAFTGPIVNGHSDELDTNGGTGTAIVVFGAGKNVVFDGSEGDANTLKDGENVLHYTAVVKKSSAVGAAVTEGAFSAVANFNLTYQ
modifications: p-azido-L-phenylalanine (AzF) at 106
notes: PapA of uropathogenic E. coli with AzF at residue 106 by amber suppression; The new residue is the unnatural amino acid p-azido-L-phenylalanine; written as F with the modification
Does B13 bind [1]?
Result: binds

B14: PapA Val155AzF (natural protein)
chain: APTIPQGQGKVTFNGTVVDAPCSISQKSADQSIDFGQLSKSFLEAGGVSKPMDLDIELVNCDITAFKGGNGAKKGTVKLAFTGPIVNGHSDELDTNGGTGTAIVVQGAGKNVVFDGSEGDANTLKDGENVLHYTAVVKKSSAVGAAVTEGAFSAFANFNLTYQ
modifications: p-azido-L-phenylalanine (AzF) at 155
notes: PapA of uropathogenic E. coli with AzF at residue 155 by amber suppression; The new residue is the unnatural amino acid p-azido-L-phenylalanine; written as F with the modification
Does B14 bind [2]?
Result: binds

B15: PapA Val18AzF (natural protein)
chain: APTIPQGQGKVTFNGTVFDAPCSISQKSADQSIDFGQLSKSFLEAGGVSKPMDLDIELVNCDITAFKGGNGAKKGTVKLAFTGPIVNGHSDELDTNGGTGTAIVVQGAGKNVVFDGSEGDANTLKDGENVLHYTAVVKKSSAVGAAVTEGAFSAVANFNLTYQ
modifications: p-azido-L-phenylalanine (AzF) at 18
notes: PapA of uropathogenic E. coli with AzF at residue 18 by amber suppression; The new residue is the unnatural amino acid p-azido-L-phenylalanine; written as F with the modification; also called Val18 mutant
With B15 as the binder, how does the “stoichiometry N” value [3] read?
The value was 2 and 3.

B16: PapA Asn96AzF (natural protein)
chain: APTIPQGQGKVTFNGTVVDAPCSISQKSADQSIDFGQLSKSFLEAGGVSKPMDLDIELVNCDITAFKGGNGAKKGTVKLAFTGPIVNGHSDELDTFGGTGTAIVVQGAGKNVVFDGSEGDANTLKDGENVLHYTAVVKKSSAVGAAVTEGAFSAVANFNLTYQ
modifications: p-azido-L-phenylalanine (AzF) at 96
notes: PapA of uropathogenic E. coli with AzF at residue 96 by amber suppression; The new residue is the unnatural amino acid p-azido-L-phenylalanine; written as F with the modification
Does B16 bind [2]?
Result: binds

B17: PapA Asp126AzF (natural protein)
chain: APTIPQGQGKVTFNGTVVDAPCSISQKSADQSIDFGQLSKSFLEAGGVSKPMDLDIELVNCDITAFKGGNGAKKGTVKLAFTGPIVNGHSDELDTNGGTGTAIVVQGAGKNVVFDGSEGDANTLKFGENVLHYTAVVKKSSAVGAAVTEGAFSAVANFNLTYQ
modifications: p-azido-L-phenylalanine (AzF) at 126
notes: PapA of uropathogenic E. coli with AzF at residue 126 by amber suppression; The new residue is the unnatural amino acid p-azido-L-phenylalanine; written as F with the modification
Does B17 bind [2]?
Result: binds
